Test results as given in patent publication US12215133 (BRIGHTGENE BIO MEDICAL TECHNOLOGY, dated 2025).

What was measured:
GLP-1 receptor = test: cell-based or functional assay
GIP receptor = target: T1, GIP receptor; test: cell-based or functional assay
T1 sequence (P48546 whole entry, species assumed, looked up): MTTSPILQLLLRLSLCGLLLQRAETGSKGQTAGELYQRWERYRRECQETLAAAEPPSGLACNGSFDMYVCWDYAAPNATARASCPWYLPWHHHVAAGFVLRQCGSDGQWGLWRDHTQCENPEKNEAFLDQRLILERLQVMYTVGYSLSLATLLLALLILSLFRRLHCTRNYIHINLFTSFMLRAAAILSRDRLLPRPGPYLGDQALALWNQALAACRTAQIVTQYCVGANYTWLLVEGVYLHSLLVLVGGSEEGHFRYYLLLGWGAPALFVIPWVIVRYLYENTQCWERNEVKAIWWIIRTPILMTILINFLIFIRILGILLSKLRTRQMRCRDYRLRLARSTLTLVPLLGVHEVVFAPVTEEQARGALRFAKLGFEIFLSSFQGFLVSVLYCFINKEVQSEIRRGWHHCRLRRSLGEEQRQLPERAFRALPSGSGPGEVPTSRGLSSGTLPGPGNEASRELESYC

B1: BGM125 (peptide)
peptide: YXEGTFTSDYSIXLDKIAQKAFVQWLIAGGPSSGAPPPS
modifications: Aib at positions 2 and 13; by the synthesis order the Lys(Alloc) at position 16 carries AEEEA-AEEEA-gamma-Glu-icosanedioic acid on its side chain; C-terminal amide (Rink MBHA Amide resin)
B1 was tested, and the “cAMP experimental result of GLP-1 receptor, EC50” value (GLP-1 receptor) was 0.0692 nM and the “cAMP experimental result of GIP receptor, EC50” value (GIP receptor) was 0.684 nM.

B2: BG128 (peptide)
peptide: YXEGTFTSDYSIXLDKIAQKAFVQWLIAGGPSSGAPPPSK
modifications: Aib (2-aminoisobutyric acid) at positions 2 and 13; Lys at position 40 carries on its side chain AEEEA-AEEEA-gamma-Glu-icosanedioic acid (Fmoc-AEEEA-OH, Fmoc-AEEEA-OH, Fmoc-Glu-OtBu and 20-(tert-butoxy)-20-oxoicosanoic acid condensed in turn); C-terminal amide (made on Rink MBHA Amide resin)
In the case of B2, the “cAMP experimental result of GLP-1 receptor, EC50” value (GLP-1 receptor) is reported as 0.11 nM and the “cAMP experimental result of GIP receptor, EC50” value (GIP receptor) is reported as 0.279 nM.
